Experimental data taken from paper PMC12416549 (2024).

Biological target: T1, TNFR1 (Homo sapiens, UniProt P19438)
T1 chain: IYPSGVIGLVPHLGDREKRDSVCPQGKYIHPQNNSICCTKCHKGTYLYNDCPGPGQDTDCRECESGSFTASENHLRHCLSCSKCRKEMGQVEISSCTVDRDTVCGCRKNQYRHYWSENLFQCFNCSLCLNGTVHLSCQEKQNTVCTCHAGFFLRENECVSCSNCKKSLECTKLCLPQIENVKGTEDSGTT
Assay: yeast display SC50

Row | Binder | apparent Kd (screen)
1 | V102T (designed binder) SMEEEVEKAAKEYEKKKKEAIEKHLEKLKAKDKEAAERFLKELEEAAKEYAKDEAKTMSEEEAKRRAKKYKEKVLLSELSEEEQKEIKEAEEKLVRTILKYTEEAAK | 0.446 nM
2 | E91Q (designed binder) SMEEEVEKAAKEYEKKKKEAIEKHLEKLKAKDKEAAERFLKELEEAAKEYAKDEAKTMSEEEAKRRAKKYKEKVLLSELSEEEQKEIKEAQEKLVRTILKYVEEAAK | 11.4 nM
3 | Y50C (designed binder) SMEEEVEKAAKEYEKKKKEAIEKHLEKLKAKDKEAAERFLKELEEAAKECAKDEAKTMSEEEAKRRAKKYKEKVLLSELSEEEQKEIKEAEEKLVRTILKYVEEAAK | 0.956 nM
4 | M58P (designed binder) SMEEEVEKAAKEYEKKKKEAIEKHLEKLKAKDKEAAERFLKELEEAAKEYAKDEAKTPSEEEAKRRAKKYKEKVLLSELSEEEQKEIKEAEEKLVRTILKYVEEAAK | 0.653 nM
5 | M2H (designed binder) SHEEEVEKAAKEYEKKKKEAIEKHLEKLKAKDKEAAERFLKELEEAAKEYAKDEAKTMSEEEAKRRAKKYKEKVLLSELSEEEQKEIKEAEEKLVRTILKYVEEAAK | 0.49 nM
6 | V102A (designed binder) SMEEEVEKAAKEYEKKKKEAIEKHLEKLKAKDKEAAERFLKELEEAAKEYAKDEAKTMSEEEAKRRAKKYKEKVLLSELSEEEQKEIKEAEEKLVRTILKYAEEAAK | 0.49 nM
7 | K18D (designed binder) SMEEEVEKAAKEYEKKKDEAIEKHLEKLKAKDKEAAERFLKELEEAAKEYAKDEAKTMSEEEAKRRAKKYKEKVLLSELSEEEQKEIKEAEEKLVRTILKYVEEAAK | 0.956 nM
8 | A106M (designed binder) SMEEEVEKAAKEYEKKKKEAIEKHLEKLKAKDKEAAERFLKELEEAAKEYAKDEAKTMSEEEAKRRAKKYKEKVLLSELSEEEQKEIKEAEEKLVRTILKYVEEAMK | 3.99 nM
9 | M58G (designed binder) SMEEEVEKAAKEYEKKKKEAIEKHLEKLKAKDKEAAERFLKELEEAAKEYAKDEAKTGSEEEAKRRAKKYKEKVLLSELSEEEQKEIKEAEEKLVRTILKYVEEAAK | 22.2 nM
10 | I87Y (designed binder) SMEEEVEKAAKEYEKKKKEAIEKHLEKLKAKDKEAAERFLKELEEAAKEYAKDEAKTMSEEEAKRRAKKYKEKVLLSELSEEEQKEYKEAEEKLVRTILKYVEEAAK | 12.5 nM
11 | I21E (designed binder) SMEEEVEKAAKEYEKKKKEAEEKHLEKLKAKDKEAAERFLKELEEAAKEYAKDEAKTMSEEEAKRRAKKYKEKVLLSELSEEEQKEIKEAEEKLVRTILKYVEEAAK | 0.539 nM
12 | K88F (designed binder) SMEEEVEKAAKEYEKKKKEAIEKHLEKLKAKDKEAAERFLKELEEAAKEYAKDEAKTMSEEEAKRRAKKYKEKVLLSELSEEEQKEIFEAEEKLVRTILKYVEEAAK | 0.539 nM
13 | K93A (designed binder) SMEEEVEKAAKEYEKKKKEAIEKHLEKLKAKDKEAAERFLKELEEAAKEYAKDEAKTMSEEEAKRRAKKYKEKVLLSELSEEEQKEIKEAEEALVRTILKYVEEAAK | 0.79 nM
14 | E86G (designed binder) SMEEEVEKAAKEYEKKKKEAIEKHLEKLKAKDKEAAERFLKELEEAAKEYAKDEAKTMSEEEAKRRAKKYKEKVLLSELSEEEQKGIKEAEEKLVRTILKYVEEAAK | 1.16 nM
15 | V74P (designed binder) SMEEEVEKAAKEYEKKKKEAIEKHLEKLKAKDKEAAERFLKELEEAAKEYAKDEAKTMSEEEAKRRAKKYKEKPLLSELSEEEQKEIKEAEEKLVRTILKYVEEAAK | 0.446 nM
16 | E26D (designed binder) SMEEEVEKAAKEYEKKKKEAIEKHLDKLKAKDKEAAERFLKELEEAAKEYAKDEAKTMSEEEAKRRAKKYKEKVLLSELSEEEQKEIKEAEEKLVRTILKYVEEAAK | 0.446 nM
17 | K64P (designed binder) SMEEEVEKAAKEYEKKKKEAIEKHLEKLKAKDKEAAERFLKELEEAAKEYAKDEAKTMSEEEAPRRAKKYKEKVLLSELSEEEQKEIKEAEEKLVRTILKYVEEAAK | 2.73 nM

Row | Binder | apparent Kd (screen)
18 | A51S (designed binder) SMEEEVEKAAKEYEKKKKEAIEKHLEKLKAKDKEAAERFLKELEEAAKEYSKDEAKTMSEEEAKRRAKKYKEKVLLSELSEEEQKEIKEAEEKLVRTILKYVEEAAK | 1.86 nM
19 | A36E (designed binder) SMEEEVEKAAKEYEKKKKEAIEKHLEKLKAKDKEAEERFLKELEEAAKEYAKDEAKTMSEEEAKRRAKKYKEKVLLSELSEEEQKEIKEAEEKLVRTILKYVEEAAK | 0.446 nM
20 | K52A (designed binder) SMEEEVEKAAKEYEKKKKEAIEKHLEKLKAKDKEAAERFLKELEEAAKEYAADEAKTMSEEEAKRRAKKYKEKVLLSELSEEEQKEIKEAEEKLVRTILKYVEEAAK | 0.49 nM
21 | R66Q (designed binder) SMEEEVEKAAKEYEKKKKEAIEKHLEKLKAKDKEAAERFLKELEEAAKEYAKDEAKTMSEEEAKRQAKKYKEKVLLSELSEEEQKEIKEAEEKLVRTILKYVEEAAK | 11.4 nM
22 | S80K (designed binder) SMEEEVEKAAKEYEKKKKEAIEKHLEKLKAKDKEAAERFLKELEEAAKEYAKDEAKTMSEEEAKRRAKKYKEKVLLSELKEEEQKEIKEAEEKLVRTILKYVEEAAK | 1.54 nM
23 | A105C (designed binder) SMEEEVEKAAKEYEKKKKEAIEKHLEKLKAKDKEAAERFLKELEEAAKEYAKDEAKTMSEEEAKRRAKKYKEKVLLSELSEEEQKEIKEAEEKLVRTILKYVEECAK | 1.4 nM
24 | R96Y (designed binder) SMEEEVEKAAKEYEKKKKEAIEKHLEKLKAKDKEAAERFLKELEEAAKEYAKDEAKTMSEEEAKRRAKKYKEKVLLSELSEEEQKEIKEAEEKLVYTILKYVEEAAK | 3.99 nM
25 | L79F (designed binder) SMEEEVEKAAKEYEKKKKEAIEKHLEKLKAKDKEAAERFLKELEEAAKEYAKDEAKTMSEEEAKRRAKKYKEKVLLSEFSEEEQKEIKEAEEKLVRTILKYVEEAAK | 2.05 nM
26 | L76P (designed binder) SMEEEVEKAAKEYEKKKKEAIEKHLEKLKAKDKEAAERFLKELEEAAKEYAKDEAKTMSEEEAKRRAKKYKEKVLPSELSEEEQKEIKEAEEKLVRTILKYVEEAAK | 1.54 nM
27 | K68S (designed binder) SMEEEVEKAAKEYEKKKKEAIEKHLEKLKAKDKEAAERFLKELEEAAKEYAKDEAKTMSEEEAKRRASKYKEKVLLSELSEEEQKEIKEAEEKLVRTILKYVEEAAK | 0.718 nM
28 | A30C (designed binder) SMEEEVEKAAKEYEKKKKEAIEKHLEKLKCKDKEAAERFLKELEEAAKEYAKDEAKTMSEEEAKRRAKKYKEKVLLSELSEEEQKEIKEAEEKLVRTILKYVEEAAK | 0.869 nM
29 | E91G (designed binder) SMEEEVEKAAKEYEKKKKEAIEKHLEKLKAKDKEAAERFLKELEEAAKEYAKDEAKTMSEEEAKRRAKKYKEKVLLSELSEEEQKEIKEAGEKLVRTILKYVEEAAK | 9.41 nM
30 | D32L (designed binder) SMEEEVEKAAKEYEKKKKEAIEKHLEKLKAKLKEAAERFLKELEEAAKEYAKDEAKTMSEEEAKRRAKKYKEKVLLSELSEEEQKEIKEAEEKLVRTILKYVEEAAK | 2.73 nM
31 | E45I (designed binder) SMEEEVEKAAKEYEKKKKEAIEKHLEKLKAKDKEAAERFLKELEIAAKEYAKDEAKTMSEEEAKRRAKKYKEKVLLSELSEEEQKEIKEAEEKLVRTILKYVEEAAK | 2.73 nM
32 | A35N (designed binder) SMEEEVEKAAKEYEKKKKEAIEKHLEKLKAKDKENAERFLKELEEAAKEYAKDEAKTMSEEEAKRRAKKYKEKVLLSELSEEEQKEIKEAEEKLVRTILKYVEEAAK | 1.69 nM
33 | A106N (designed binder) SMEEEVEKAAKEYEKKKKEAIEKHLEKLKAKDKEAAERFLKELEEAAKEYAKDEAKTMSEEEAKRRAKKYKEKVLLSELSEEEQKEIKEAEEKLVRTILKYVEEANK | 1.05 nM
